The text below walks through data of the supplement of paper PMC10724198.

Series [1] has as its system Saccharomyces cerevisiae. Nature of the series: protein stability index of tFT-peptide fusion in wild type (PSI (0-1 scale)); higher = more stable (slower turnover). As to conditions: genetic background: wild type. As to the method:
(§1)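 MPS profiling in S. cerevisiae of two library types built from selected 12-aa C-degron peptides (IN1, IN2, LN1, LN3, VN2, R1-R5, W1-W3, Atg1 and Rpa12 C-termini): saturation mutagenesis libraries and C-terminal +1 capping libraries (13 aa). Each peptide is fused to the C-terminus of a sfGFP-mCherry timer, after a GGGS linker. Cells are FACS-sorted into 8 mCherry/sfGFP bins and sequenced. PSI runs from 0 (unstable) to 1 (stable), measured once in wild type and in the das1Δ or doa10Δ background.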

Series [2] concerns Saccharomyces cerevisiae. The experiment in a line: protein stability index of tFT-peptide fusion in deletion strain of DAS1 (PSI (0-1 scale)); higher = more stable (slower turnover). How it is done:
as §1
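For protein stability index of tFT-peptide fusion in deletion strain of DAS1 in this document: PSI is a weighted mean of each variant's read distribution over the sorted stability bins, computed only for variants having over 10 reads in total.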
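For protein stability index of tFT-peptide fusion in wild type in this document: PSI derived as read-weighted mean over the 8 sorting bins, only variants exceeding 10 total reads kept, mCherry placed adjacent to the peptide and sfGFP distal.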

Consider ARWRVGLFRGAS, for which the protein stability index was 0.655 in series [1] and 0.665 in series [2].
ARWRVGLMRGAS: the protein stability index in series [1] is 0.596; in series [2] it was 0.677.
On the same counts, the results for ARWRVGLRRGAS are 0.672 and 0.683.
For the sequence ARWRVGLWRCAS, the figures for the protein stability index in series [1] and in series [2] were 0.114 and 0.674, respectively.
Consider ARWRVGLWRGAF, for which the results for the protein stability index in series [1] and in series [2] were 0.603 and 0.682, respectively.
On the same counts, the results for ARWRVGLWRGAM are 0.531 and 0.702.
For ARWRVGLWRGAW the same measures were 0.68 and 0.686.
For ARWRVGLWRGLS the same measures were 0.119 and 0.661.
In the case of ARWRVGLWRGRS, the protein stability index in series [1] stood at 0.66; in series [2], 0.679.
On the same counts, the results for ARWRVGLWRHAS are 0.0927 and 0.688.
On the same counts, the results for ARWRVGLWRNAS are 0.11 and 0.693.
On the same counts, the results for ARWRVGLWRYAS are 0.0836 and 0.686.
On to ARWRVMLWRGAS, for which the protein stability index in series [1] is 0.305; in series [2], 0.705.
For ARWRVYLWRGAS the same measures were 0.378 and 0.618.
On the same counts, the results for AVWRVGLWRGAS are 0.409 and 0.678.
On the same counts, the results for CDKRNHLIKLLN are 0.153 and 0.589.
With CPSCGYKFRTNN, the protein stability index in series [1] stood at 0.361; in series [2], 0.754.
As to CTECGYKFRTNN, the protein stability index is 0.357 in series [1] and 0.678 in series [2].
For CTPCGYKFRTNN the same measures were 0.248 and 0.686.
CTSCFYKFRTNN: the protein stability index in series [1] was determined as 0.173; in series [2], 0.677.
For CTSCGDKFRTNN the same measures were 0.48 and 0.696.
On the same counts, the results for CTSCGKKFRTNN are 0.5 and 0.688.
On the same counts, the results for CTSCGYKERTNN are 0.632 and 0.699.
Consider CTSCGYKFDTNN, for which the values for the protein stability index in series [1] and in series [2] were 0.667 and 0.705, respectively.
With CTSCGYKFETNN, the figures for the protein stability index in series [1] and in series [2] were 0.656 and 0.707, respectively.
On the same counts, the results for CTSCGYKFKTNN are 0.642 and 0.725.
On the same counts, the results for CTSCGYKFMTNN are 0.477 and 0.676.
For CTSCGYKFRENN the same measures were 0.691 and 0.693.
For the sequence CTSCGYKFRMNN, the protein stability index in series [1] turned out to be 0.412; in series [2], 0.686.
On the same counts, the results for CTSCGYKFRTNG are 0.399 and 0.685.
On the same counts, the results for CTSCGYKFRTNNS are 0.683 and 0.7.
On to CTSCGYKFRTNNW, for which the results for the protein stability index in series [1] and in series [2] were 0.705 and 0.716, respectively.
For CTSCGYKFRTNQ, the protein stability index was 0.498 in series [1] and 0.691 in series [2].
For CTSCGYKFRTNW the same measures were 0.695 and 0.705.
For CTSCGYKMRTNN the same measures were 0.227 and 0.669.
For CTSCGYKSRTNN, the protein stability index in series [1] amounted to 0.673; in series [2] it was 0.703.
For CTSCGYNFRTNN the same measures were 0.642 and 0.704.
As to CTSCSYKFRTNN, the protein stability index in series [1] amounted to 0.267; in series [2], 0.686.
For CTSFGYKFRTNN the same measures were 0.127 and 0.678.
As to CTSKGYKFRTNN, the protein stability index in series [1] was determined as 0.269; in series [2] it was 0.667.
CTSMGYKFRTNN: the figures for the protein stability index in series [1] and in series [2] were 0.148 and 0.689, respectively.
CTSTGYKFRTNN: the protein stability index was 0.214 in series [1] and 0.681 in series [2].
Consider DDKRNHLIKLLN, for which the protein stability index in series [1] was found to be 0.146; in series [2] it was 0.595.
For DRGAVGGWRLVG the same measures were 0.176 and 0.655.
On the same counts, the results for DSMRWTFRYWVN are 0.0763 and 0.582.
With DVVYLSCVACIN, the protein stability index came out at 0.0164 in series [1] and 0.0312 in series [2].
On the same counts, the results for EDKRNHLIKLLN are 0.078 and 0.599.
On the same counts, the results for EKILRQKMNHQN are 0.137 and 0.681.
Turning to FSCRWTFRYWVN, the protein stability index turned out to be 0.065 in series [1] and 0.51 in series [2].
For FSMRWDFRYWVN the same measures were 0.0502 and 0.585.
For FSMRWGFRYWVN the same measures were 0.0673 and 0.646.
For FSMRWTFRHWVN the same measures were 0.0837 and 0.625.
Consider FSMRWTFRYRVN, for which the figures for the protein stability index in series [1] and in series [2] were 0.059 and 0.586, respectively.
Take FSMRWTFRYSVN: the protein stability index was 0.154 in series [1] and 0.53 in series [2].
For FSMRWTFRYTVN the same measures were 0.0631 and 0.476.
For FSMRWTFRYWEN the same measures were 0.5 and 0.54.
On the same counts, the results for FSMRWTFRYWQN are 0.106 and 0.614.
Turning to FSMRWTFRYWVA, the protein stability index stood at 0.202 in series [1] and 0.545 in series [2].
With FSMRWTFRYWVK, the protein stability index in series [1] is 0.49; in series [2] it was 0.45.
For FSMRWTFRYWVL the same measures were 0.0913 and 0.457.
For FSMRWTFRYWVNY the same measures were 0.114 and 0.471.
On the same counts, the results for FSMRWTFSYWVN are 0.0568 and 0.497.
Turning to FSMRWTGRYWVN, the protein stability index was 0.0626 in series [1] and 0.587 in series [2].
For FSMRWYFRYWVN the same measures were 0.059 and 0.526.
As for FSYRWTFRYWVN, the protein stability index in series [1] stood at 0.0328; in series [2], 0.53.
On the same counts, the results for FTSCGYKFRTNN are 0.207 and 0.676.
For FVMRWTFRYWVN the same measures were 0.0377 and 0.272.
